Consider four molecules from publication PMC5444840.

Common to all, as to experiment: SPR; multi-cycle kinetics, Biacore X-100: rSgC or IgD amine-coupled on a CM4 chip; different chemokine concentrations at 30 ul/min, 180 s contact, 600 s dissociation, HBS-EP pH 7.4; global fit to a 1:1 Langmuir model
A general note: SPR reads the build-up and loss of mass on a sensor chip optically.

For assay [1], the target named is VZV gC IgD (amino acids P140 to V531, with the predicted immunoglobulin-like domains) (Varicella zoster virus, Dumas strain).
Assay [2] concerns the target recombinant soluble VZV glycoprotein C ectodomain (VZV rSgC) (Varicella zoster virus, Dumas strain).
Assay [3] addresses VZV gC IgD (amino acids P140 to V531, with the predicted immunoglobulin-like domains) (Varicella zoster virus, Dumas strain). The source holds these as a separate data set.
In assay [4] the target is recombinant soluble VZV glycoprotein C ectodomain (VZV rSgC) (Varicella zoster virus, Dumas strain). This is another data set of the same source.

Like-named read-outs stand apart in the source and are kept apart here.

Chain of VZV gC IgD (amino acids P140 to V531, with the predicted immunoglobulin-like domains) (Varicella zoster virus, Dumas strain) (P09256 171-562 limits assumed): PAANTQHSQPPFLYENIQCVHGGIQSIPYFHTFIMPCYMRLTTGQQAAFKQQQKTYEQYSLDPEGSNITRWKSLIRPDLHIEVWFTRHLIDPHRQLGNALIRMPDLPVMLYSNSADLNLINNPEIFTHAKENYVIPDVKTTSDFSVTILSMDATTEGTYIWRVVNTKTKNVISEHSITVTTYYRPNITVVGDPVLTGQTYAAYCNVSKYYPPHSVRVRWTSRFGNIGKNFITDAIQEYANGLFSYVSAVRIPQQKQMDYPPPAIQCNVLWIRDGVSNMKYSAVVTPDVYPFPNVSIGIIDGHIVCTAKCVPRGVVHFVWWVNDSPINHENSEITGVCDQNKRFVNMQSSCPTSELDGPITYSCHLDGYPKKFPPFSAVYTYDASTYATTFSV
Chain of recombinant soluble VZV glycoprotein C ectodomain (VZV rSgC) (Varicella zoster virus, Dumas strain) (P09256 54-562 limits assumed): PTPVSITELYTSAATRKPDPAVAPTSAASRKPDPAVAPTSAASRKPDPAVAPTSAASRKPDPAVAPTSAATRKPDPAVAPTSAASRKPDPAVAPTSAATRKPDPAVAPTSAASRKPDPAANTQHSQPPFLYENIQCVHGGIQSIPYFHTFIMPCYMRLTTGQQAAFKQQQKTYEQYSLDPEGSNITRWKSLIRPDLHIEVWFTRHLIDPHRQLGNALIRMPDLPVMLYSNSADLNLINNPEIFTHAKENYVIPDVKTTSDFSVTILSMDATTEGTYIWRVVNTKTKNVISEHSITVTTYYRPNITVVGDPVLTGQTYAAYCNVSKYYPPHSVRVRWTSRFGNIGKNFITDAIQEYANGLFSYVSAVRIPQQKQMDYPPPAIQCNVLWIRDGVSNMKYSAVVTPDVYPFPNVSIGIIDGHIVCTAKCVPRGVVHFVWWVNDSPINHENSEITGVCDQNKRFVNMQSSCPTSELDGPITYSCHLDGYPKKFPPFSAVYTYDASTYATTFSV

For orientation: Kd means the free concentration of one partner at which half of the binding sites on the other are occupied at equilibrium, for simple one-to-one binding. For orientation: koff means the first-order rate constant of dissociation. As a reminder, the kon is a measure of how fast the partners come together. Turning to “CCL2 (from UniProt P13500 24-99) (ligand)”, in assay [1], the Kd is 6050 pM, the koff was 0.0013 s⁻¹, the kon is 214000 M⁻¹ s⁻¹ and the t(1/2) was 8.91 min. Also, in assay [2], the dissociation constant Kd stood at 5840 pM, the koff came to 0.00101 s⁻¹, the on-rate (kon) is 173000 M⁻¹ s⁻¹ and the t(1/2) came out at 11.4 min.

With “CCL19 (from UniProt Q99731 22-98) (ligand)”, in assay [1], the Kd was 118 pM, the koff is 0.00161 s⁻¹, the kon was 1.37e+07 M⁻¹ s⁻¹ and the t(1/2) is 7.18 min. For the same molecule, in assay [2], the Kd is 138 pM, the koff came to 0.00212 s⁻¹, the kon was determined as 1.54e+07 M⁻¹ s⁻¹ and the t(1/2) turned out to be 5.46 min.

“CCL13 (from UniProt Q99616 17-98) (ligand)”: in assay [1], the Kd is 299 pM, the koff was 0.00389 s⁻¹, the kon is 1.3e+07 M⁻¹ s⁻¹ and the t(1/2) is 2.97 min. Besides, in assay [2], the Kd was determined as 176 pM, the koff came to 0.00184 s⁻¹, the kon was 1.04e+07 M⁻¹ s⁻¹ and the t(1/2) amounted to 6.29 min.

B1: CXCL13 (ligand)
chain: VLEVYYTSLRCRCVQESSVFIPRRFIDRIQILPRGNGCPRKEIIVWKKNKSIVCVDPQAEWIQRMMEVLRKRSSSTLPVPVFKRKIP
Consider B1, for which, in assay [3], the Kd is 567 pM, the koff is 0.0015 s⁻¹, the kon is 2.64e+06 M⁻¹ s⁻¹ and the t(1/2) is 7.72 min. In addition, in assay [4], the Kd came to 422 pM, the koff turned out to be 0.00251 s⁻¹, the kon was found to be 5.94e+06 M⁻¹ s⁻¹ and the t(1/2) stood at 4.61 min.
